Results: the RNAGym collection of RNA variant scans (doi:10.1021/acssynbio.7b00057)

B1: Pistol ribozyme (parent)
chain: GGGUCGUUGUUCCAUAAUCGCGUGGAUAUGGCACGCAAGUUUCUACCGGGCACCGUAAAUGUCCGACUGGAGCCGUUCGGGCGGCUAUAAACAGACCUCAGGCCCGAAGCGUGGCGGCACCUGCCGCCGGUGGUAAAAAAGAUCGGAAGAGCACACGUCU

Variants of: B1
Experiment: aptazyme ON/OFF ratio, guanine; higher = stronger switching; co-transcriptional cleavage with and without guanine

Going from U7A U8C G9A U11A C12U C13U to U7A U8A U10G U11C, the “aptazyme ON/OFF ratio” value falls from 1.18 to 1.03.

First: U7A U8A U10G U11G
Second: U7A U8C G9A U10C U11G C12A
The “aptazyme ON/OFF ratio” value of the first is higher: 1.38 for the first, 1.09 for the second.

Compared with U7A U8C G9A U10C U11G C12G, U7A U8C G9A U10C U11G C12U is lower in “aptazyme ON/OFF ratio” value: 1.27 for the first, 1.23 for the second.

Going from U7A U8C G9A U11C C12A to U7A U8C G9A U10A C12A, the “aptazyme ON/OFF ratio” value rises from 1.21 to 1.26.

Going from U7A U8C G9A U10A C12G to U7A U8C G9A U10A C12U, the “aptazyme ON/OFF ratio” value falls from 1.24 to 1.17.

Compared with U7A U8C G9A U10A U11C C12G C13G, U7A U8C G9A U10A U11C C12G C13U is higher in “aptazyme ON/OFF ratio” value: 1.17 for the first, 1.2 for the second.

Compared with U7A U8C G9A U10A U11C C12G C13A, U7A U8C G9A U11A C13U is higher in “aptazyme ON/OFF ratio” value: 1.09 for the first, 1.3 for the second.

First: U7A U8C G9A U11A C13A
Second: U7A U8C G9A U11A C13G
The “aptazyme ON/OFF ratio” value of the first is higher: 1.16 for the first, 1.09 for the second.

First: U7A U8A U10G U11C C12G C13A
Second: U7A U8A U10G U11C C12G C13G
The “aptazyme ON/OFF ratio” value of the first is higher: 1.23 for the first, 1.11 for the second.

Going from U7A U8A U10G U11C C12G C13U to U7A U8C C12U C13G, the “aptazyme ON/OFF ratio” value falls from 1.39 to 1.27.

Going from U7A U8C C12U C13A to U7A U8C C12U C13U, the “aptazyme ON/OFF ratio” value falls from 1.3 to 1.27.

First: U7A U8A U10G U11C C12U C13G
Second: U7A U8A U10G U11C C12U C13A
The “aptazyme ON/OFF ratio” value of the first is higher: 1.48 for the first, 1.42 for the second.

Going from U7A U8A U10G U11C C12U C13U to U7A U8A U10G U11C C12G, the “aptazyme ON/OFF ratio” value falls from 1.47 to 1.32.

Going from U7A U8A U10G U11C C12A to U7A U8A U10G U11C C12U, the “aptazyme ON/OFF ratio” value falls from 1.61 to 1.1.

First: U7A U8A U11A C13A
Second: U7A U8A U11A C13G
The “aptazyme ON/OFF ratio” value of the first is higher: 1.11 for the first, 1.09 for the second.

Going from U7A U8A U11A C13U to U7A U8C G9A U10C U11G C12G C13A, the “aptazyme ON/OFF ratio” value rises from 1.11 to 1.23.

First: U7A U8C G9A U10C U11G C12G C13G
Second: U7A U8C G9A U10C U11G C12G C13U
The “aptazyme ON/OFF ratio” value of the first is higher: 1.29 for the first, 1.1 for the second.

Going from U7A U8C G9A U10C U11C C13U to U7A U8C G9A U10C U11C C13G, the “aptazyme ON/OFF ratio” value falls from 1.02 to 1.

Compared with U7A U8C G9A U10C U11C C13A, U7A U8A U10G U11A C12G C13G is higher in “aptazyme ON/OFF ratio” value: 1.04 for the first, 1.16 for the second.

First: U7A U8A U10G U11A C12G C13U
Second: U7A U8C G9A U10C C12U C13A
The “aptazyme ON/OFF ratio” value of the first is higher: 1.51 for the first, 1.17 for the second.

Compared with U7A U8C G9A U10C C12U C13G, U7A U8C G9A U10C C12U C13U is higher in “aptazyme ON/OFF ratio” value: 1.1 for the first, 1.26 for the second.

Compared with U7A U8C G9A U10G C12A, U7A U8C G9A U10G C12G is higher in “aptazyme ON/OFF ratio” value: 1.1 for the first, 1.15 for the second.

Compared with U7A U8C G9A U10G C12U, U7A U8C G9A U10G C12U C13U is higher in “aptazyme ON/OFF ratio” value: 1.23 for the first, 1.39 for the second.

First: U7A U8C G9A U10G C12U C13A
Second: U7A U8C G9A U10G C12U C13G
The “aptazyme ON/OFF ratio” value of the first is higher: 1.23 for the first, 1.18 for the second.

Compared with U7A U8C G9A U11A C12A C13U, U7A U8C G9A U11A C12A C13A is higher in “aptazyme ON/OFF ratio” value: 1.17 for the first, 1.31 for the second.

Going from U7A U8C G9A U11A C12A C13G to U7A U8A U11C C12U C13A, the “aptazyme ON/OFF ratio” value rises from 1.09 to 1.21.

Going from U7A U8A U11C C12U C13G to U7A U8A U11C C12U C13U, the “aptazyme ON/OFF ratio” value rises from 1.21 to 1.59.

Going from U7A U8A U11G to U7A U8A U11A, the “aptazyme ON/OFF ratio” value falls from 1.25 to 1.22.

Compared with U7A U8A U11C, U7A U8A U10G U11C C12A C13A is lower in “aptazyme ON/OFF ratio” value: 1.38 for the first, 1.28 for the second.

First: U7A U8A U10G U11C C12A C13U
Second: U7A U8A U10G U11C C12A C13G
The “aptazyme ON/OFF ratio” value of the first is higher: 1.34 for the first, 1.09 for the second.

Going from U7A U8C G9A U10C U11A C12U C13G to U7A U8C G9A U10C U11A C12U C13U, the “aptazyme ON/OFF ratio” value rises from 1.15 to 1.18.

Compared with U7A U8C G9A U10C U11A C12U C13A, U7A U8A U11G C12G C13U is higher in “aptazyme ON/OFF ratio” value: 1.12 for the first, 1.46 for the second.

Going from U7A U8A U11G C12G C13G to U7A U8A U11G C12G C13A, the “aptazyme ON/OFF ratio” value falls from 1.24 to 1.1.

Compared with U7A U8C G9A U10A U11C C12A C13U, U7A U8C G9A U10A U11C C12A C13A is lower in “aptazyme ON/OFF ratio” value: 1.25 for the first, 1.14 for the second.

First: U7A U8C G9A U10A U11C C12A C13G
Second: U7A U8C C13A
The “aptazyme ON/OFF ratio” value of the first is lower: 1.18 for the first, 1.26 for the second.

First: U7A U8C C13U
Second: U7A U8C C13G
The “aptazyme ON/OFF ratio” value of the first is higher: 1.51 for the first, 1.16 for the second.

Going from U7A U8C G9A U10C U11G C13G to U7A U8C G9A U10C U11G C13A, the “aptazyme ON/OFF ratio” value falls from 1.37 to 1.33.

Compared with U7A U8C G9A U10C U11G C13U, U7A U8C G9A U10G U11A C12A C13A is lower in “aptazyme ON/OFF ratio” value: 1.46 for the first, 1.19 for the second.

Going from U7A U8C G9A U10G U11A C12A C13U to U7A U8C G9A U10G U11A C12A C13G, the “aptazyme ON/OFF ratio” value falls from 1.24 to 1.11.

Compared with U7A U8A U11A C12U C13U, U7A U8A U11A C12U C13A is higher in “aptazyme ON/OFF ratio” value: 1.25 for the first, 1.29 for the second.

Compared with U7A U8A U11A C12U C13G, U7A U8C G9A U10G U11G C12G C13G is lower in “aptazyme ON/OFF ratio” value: 1.28 for the first, 1.09 for the second.

Going from U7A U8C G9A U10G U11G C12G C13U to U7A U8C G9A U10G U11G C12G C13A, the “aptazyme ON/OFF ratio” value rises from 1.12 to 1.42.
